Source: paper PMC3679108, “A Novel Glucagon-Related Peptide (GCRP) and Its Receptor GCRPR Account for Coevolution of Their Family Members in Vertebrates” (PLoS ONE, 2013)
Where two headings read alike, the source gives them in different places. Ends that are not written are not given here.

How the values were obtained:
[1] = target: chicken GCRP receptor (chicken); assay: radioligand binding; competitive displacement on HEK293T cells transfected with GCRPR (300 ng DNA/well, 12-well plates); 100,000 cpm 125I-chGCRP without or with various concentrations of cold peptides, 1 h, binding buffer (serum-free DMEM with 0.1% BSA, pH 7.4); IC50 by nonlinear regression
[2] = target: human GCGR (human) (UniProt P47871)
[3] = target: human GIPR (human) (UniProt P48546)
[4] = target: human GLP2R (human) (UniProt O95838)
[5] = target: human GLP1R (human) (UniProt P43220)
[6] = target: chicken GCRP receptor (chicken); assay: radioligand binding; competitive displacement on HEK293T cells transfected with GCRPR (300 ng DNA/well, 12-well plates); 100,000 cpm 125I-chGCRP without or with various concentrations of cold peptides, 1 h, binding buffer (serum-free DMEM with 0.1% BSA, pH 7.4); IC50 by nonlinear regression; remark: listed apart in the source
[7] = target: chicken GLP1R (chicken)
[8] = target: chimeric chGCRPR/huGLP1R (chicken | human) (UniProt P43220)
[9] = target: chimeric chGCRPR/chGLP1R (chicken)
[10] = target: chicken GCRP receptor (chicken)
[11] = target: chicken GCRP receptor (chicken); remark: listed apart in the source
[12] = target: Xenopus GCRP receptor (Xenopus)
[13] = target: chicken GCRP receptor (chicken); remark: listed apart in the source
[14] = target: medaka GCRP receptor (medaka)
[15] = target: Xenopus GCRP receptor (Xenopus); assay: radioligand binding; competitive displacement on HEK293T cells transfected with GCRPR (300 ng DNA/well, 12-well plates); 100,000 cpm 125I-chGCRP without or with various concentrations of cold peptides, 1 h, binding buffer (serum-free DMEM with 0.1% BSA, pH 7.4); IC50 by nonlinear regression
[16] = target: Xenopus GCRP receptor (Xenopus); assay: as above; remark: listed apart in the source
[17] = target: Xenopus GCRP receptor (Xenopus); remark: listed apart in the source
[18] = target: medaka GCRP receptor (medaka); assay: radioligand binding; competitive displacement on HEK293T cells transfected with GCRPR (300 ng DNA/well, 12-well plates); 100,000 cpm 125I-chGCRP without or with various concentrations of cold peptides, 1 h, binding buffer (serum-free DMEM with 0.1% BSA, pH 7.4); IC50 by nonlinear regression
[19] = target: medaka GCRP receptor (medaka); assay: as above; remark: listed apart in the source
[20] = target: medaka GCRP receptor (medaka); remark: listed apart in the source
[21] = target: medaka GCRP receptor (medaka); remark: listed apart in the source

Chain of chimeric chGCRPR/huGLP1R (chicken | human) (P43220 whole entry, change not shown): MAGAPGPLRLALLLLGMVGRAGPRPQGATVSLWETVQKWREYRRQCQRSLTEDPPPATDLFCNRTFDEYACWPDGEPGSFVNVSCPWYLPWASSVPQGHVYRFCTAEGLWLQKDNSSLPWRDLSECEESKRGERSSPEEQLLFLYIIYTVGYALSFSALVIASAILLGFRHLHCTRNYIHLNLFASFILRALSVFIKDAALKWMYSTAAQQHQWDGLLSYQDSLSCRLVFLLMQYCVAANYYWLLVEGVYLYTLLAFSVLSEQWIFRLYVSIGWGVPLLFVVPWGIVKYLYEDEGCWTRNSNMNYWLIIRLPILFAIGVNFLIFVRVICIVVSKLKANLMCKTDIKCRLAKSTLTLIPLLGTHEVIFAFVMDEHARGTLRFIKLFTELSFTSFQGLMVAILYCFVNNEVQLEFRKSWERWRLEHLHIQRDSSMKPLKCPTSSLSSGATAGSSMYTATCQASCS
Chain of human GIPR (human) (P48546 22-466): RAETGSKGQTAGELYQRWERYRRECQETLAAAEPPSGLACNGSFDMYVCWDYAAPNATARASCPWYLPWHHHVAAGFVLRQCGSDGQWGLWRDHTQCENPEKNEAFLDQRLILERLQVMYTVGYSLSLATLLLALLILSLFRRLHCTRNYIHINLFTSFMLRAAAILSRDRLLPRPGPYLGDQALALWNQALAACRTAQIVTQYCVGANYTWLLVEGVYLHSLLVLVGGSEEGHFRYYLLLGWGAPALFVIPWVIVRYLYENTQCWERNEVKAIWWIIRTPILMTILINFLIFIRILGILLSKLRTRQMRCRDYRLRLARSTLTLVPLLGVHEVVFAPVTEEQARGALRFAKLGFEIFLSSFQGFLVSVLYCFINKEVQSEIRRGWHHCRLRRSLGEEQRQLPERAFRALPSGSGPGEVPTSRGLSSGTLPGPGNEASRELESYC
Chain of human GCGR (human) (P47871 26-477): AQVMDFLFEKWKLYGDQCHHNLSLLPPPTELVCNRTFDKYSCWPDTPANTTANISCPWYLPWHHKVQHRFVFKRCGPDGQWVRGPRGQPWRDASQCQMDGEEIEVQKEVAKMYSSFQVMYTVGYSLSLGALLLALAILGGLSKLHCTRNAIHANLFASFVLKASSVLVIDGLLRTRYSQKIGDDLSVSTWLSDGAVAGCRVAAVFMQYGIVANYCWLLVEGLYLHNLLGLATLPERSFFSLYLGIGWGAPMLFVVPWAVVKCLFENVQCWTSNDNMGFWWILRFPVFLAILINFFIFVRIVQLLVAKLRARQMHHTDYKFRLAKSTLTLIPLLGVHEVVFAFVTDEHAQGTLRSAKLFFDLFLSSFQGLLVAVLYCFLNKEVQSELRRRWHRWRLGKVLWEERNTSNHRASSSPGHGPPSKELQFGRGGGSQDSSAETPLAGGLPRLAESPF
Chain of human GLP1R (human) (P43220 24-463): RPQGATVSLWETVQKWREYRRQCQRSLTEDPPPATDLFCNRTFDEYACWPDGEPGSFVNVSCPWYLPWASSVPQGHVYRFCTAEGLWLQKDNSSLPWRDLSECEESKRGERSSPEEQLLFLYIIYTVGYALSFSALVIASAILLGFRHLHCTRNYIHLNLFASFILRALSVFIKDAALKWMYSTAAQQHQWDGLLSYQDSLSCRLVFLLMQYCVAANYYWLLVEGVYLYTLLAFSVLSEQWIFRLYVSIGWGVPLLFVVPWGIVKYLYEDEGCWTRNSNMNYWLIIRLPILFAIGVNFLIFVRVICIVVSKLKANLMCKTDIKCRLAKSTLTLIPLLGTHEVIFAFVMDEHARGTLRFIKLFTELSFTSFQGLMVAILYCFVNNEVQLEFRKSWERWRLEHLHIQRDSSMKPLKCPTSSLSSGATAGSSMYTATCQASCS
Chain of human GLP2R (human) (O95838 whole entry): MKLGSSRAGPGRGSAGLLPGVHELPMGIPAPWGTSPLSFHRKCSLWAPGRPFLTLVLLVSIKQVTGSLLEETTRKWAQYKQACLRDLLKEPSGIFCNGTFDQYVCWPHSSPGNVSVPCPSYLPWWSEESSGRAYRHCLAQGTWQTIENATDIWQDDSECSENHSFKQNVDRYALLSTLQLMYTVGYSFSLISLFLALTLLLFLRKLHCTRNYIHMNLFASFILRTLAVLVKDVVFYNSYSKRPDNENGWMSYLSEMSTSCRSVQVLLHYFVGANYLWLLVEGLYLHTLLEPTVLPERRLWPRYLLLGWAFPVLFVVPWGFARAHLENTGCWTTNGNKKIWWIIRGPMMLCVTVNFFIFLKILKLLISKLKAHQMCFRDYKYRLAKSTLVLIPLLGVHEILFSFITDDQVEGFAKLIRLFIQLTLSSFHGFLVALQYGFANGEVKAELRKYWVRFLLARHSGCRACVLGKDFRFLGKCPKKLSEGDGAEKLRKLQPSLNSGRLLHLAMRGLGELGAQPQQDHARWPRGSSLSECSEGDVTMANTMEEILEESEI

Binder | CRE-luc reporter, HEK293T cells with the receptor: EC50 [2] | CRE-luc reporter, HEK293T cells with the receptor: Emax (fold induction) [2] | CRE-luc reporter, HEK293T cells with the receptor: Emax (fold induction) [3] | CRE-luc reporter, HEK293T cells with the receptor: EC50 [5] | CRE-luc reporter, HEK293T cells with the receptor: Emax (fold induction) [5] | CRE-luc reporter, HEK293T cells with the receptor: EC50 [12] | CRE-luc reporter, HEK293T cells with the receptor: Emax (fold induction) [12] | CRE-luc reporter, HEK293T cells with the receptor: EC50 [13] | CRE-luc reporter, HEK293T cells with the receptor: Emax (fold induction) [13] | CRE-luc reporter, HEK293T cells with the receptor: EC50 [14] | CRE-luc reporter, HEK293T cells with the receptor: Emax (fold induction) [14] | also measured
HSEGTFTSDFTRYLDKMKAKDFVHWLINT [Chicken GCRP] | 42.7 nM | 6.32 | 3.03 | 48.9 nM | 19.8 | 5.86 nM | 30.1 | 0.87 nM | 6 | 33.7 nM | 8.12 | IC50 [1]: 43.5 nM; CRE-luc reporter, HEK293T cells with the receptor: EC50 [4]: 592 nM; CRE-luc reporter, HEK293T cells with the receptor: Emax (fold induction) [4]: 6.32; IC50 [6]: 43.6 nM; CRE-luc reporter, HEK293T cells with the receptor: EC50 [7]: 8.03 nM; CRE-luc reporter, HEK293T cells with the receptor: Emax (fold induction) [7]: 19.2; CRE-luc reporter, HEK293T cells with the receptor: EC50 [8]: 9.44 nM; CRE-luc reporter, HEK293T cells with the receptor: Emax (fold induction) [8]: 62.9; CRE-luc reporter, HEK293T cells with the receptor: EC50 [9]: 8.57 nM; CRE-luc reporter, HEK293T cells with the receptor: Emax (fold induction) [9]: 7.3; CRE-luc reporter, HEK293T cells with the receptor: EC50 [10]: 0.32 nM; CRE-luc reporter, HEK293T cells with the receptor: Emax (fold induction) [10]: 5.56; cAMP level by Glosensor-22F luminescence in HEK293T cells with the receptor: EC50 [11]: 5.8 nM
HSEGTFSSDLTRYLDKMKAKDFVQWLMN [Xenopus GCRP] | 182 nM | 2.09 | 1.95 | > 1000 nM | 24.1 | 2.24 nM | 30.4 | 1.18 nM | 6.25 | 30.6 nM | 8.1 | IC50 [15]: 65.5 nM; IC50 [16]: 63 nM; cAMP level by Glosensor-22F luminescence in HEK293T cells with the receptor: EC50 [17]: 46 nM
HAEGTYTSDITSYLEGQAAKEFIAWLVNGR (also: unexplained 'a' after last residue) [Chicken GLP1] | – | – | – | – | – | – | – | – | – | – | – | IC50 [15]: > 1000 nM; IC50 [1]: > 1000 nM; CRE-luc reporter, HEK293T cells with the receptor: EC50 [7]: 0.2 nM; CRE-luc reporter, HEK293T cells with the receptor: Emax (fold induction) [7]: 28.2; CRE-luc reporter, HEK293T cells with the receptor: EC50 [8]: 2.29 nM; CRE-luc reporter, HEK293T cells with the receptor: Emax (fold induction) [8]: 91.9; CRE-luc reporter, HEK293T cells with the receptor: EC50 [9]: 1.52 nM; CRE-luc reporter, HEK293T cells with the receptor: Emax (fold induction) [9]: 12.6; CRE-luc reporter, HEK293T cells with the receptor: EC50 [10]: 18.3 nM; CRE-luc reporter, HEK293T cells with the receptor: Emax (fold induction) [10]: 5.8
HTDGMFTSDLTNYLDKMKAKNFVEWLAAIKQQE [Medaka GCRP] | 175 nM | 2.27 | 2.11 | 156 nM | 20.9 | 94.6 nM | 32 | 68.2 nM | 6.93 | 6.84 nM | 7.9 | IC50 [18]: 327 nM; IC50 [19]: 320 nM; CRE-luc reporter, HEK293T cells with the receptor: EC50 [20]: 6.76 nM; cAMP level by Glosensor-22F luminescence in HEK293T cells with the receptor: EC50 [21]: 1.15 nM
YSEATLASDYSRTMDNMLKKNFVEWLLARREKKSDNVIEPY [Chicken GIP] | – | – | – | – | – | 274 nM | 32.4 | 69.2 nM | 6.22 | – | – | –
HADGTFTSDINKILDDMAAKEFLKWLINTKVTQ [Chicken GLP2] | – | – | – | – | – | – | – | 33.4 nM | 6.26 | – | – | –
HSEGTFSNDYSKYLEDRKAQDFVRWLMNN [Medaka GCG1] | – | – | – | – | – | – | – | – | – | 108 nM | 4.26 | –
YAEGTFISDYSIAMDKIHQQDFVNWLLAQKGKKNDWKHNITQ [Human GIP] | – | – | 5.21 | – | – | – | – | – | – | – | – | –
